US20030109691A1 (GENERAL HOSPITAL, published 2003)

Target: T1, CD54 (ICAM-1) (UniProt P05362 28-480, limits assumed)
T1 construct: Amine-coupled to a CM5 chip for SPR
Assay: ELISA, CD11a A domain on ICAM-1

T1 sequence (P05362 28-480 limits assumed): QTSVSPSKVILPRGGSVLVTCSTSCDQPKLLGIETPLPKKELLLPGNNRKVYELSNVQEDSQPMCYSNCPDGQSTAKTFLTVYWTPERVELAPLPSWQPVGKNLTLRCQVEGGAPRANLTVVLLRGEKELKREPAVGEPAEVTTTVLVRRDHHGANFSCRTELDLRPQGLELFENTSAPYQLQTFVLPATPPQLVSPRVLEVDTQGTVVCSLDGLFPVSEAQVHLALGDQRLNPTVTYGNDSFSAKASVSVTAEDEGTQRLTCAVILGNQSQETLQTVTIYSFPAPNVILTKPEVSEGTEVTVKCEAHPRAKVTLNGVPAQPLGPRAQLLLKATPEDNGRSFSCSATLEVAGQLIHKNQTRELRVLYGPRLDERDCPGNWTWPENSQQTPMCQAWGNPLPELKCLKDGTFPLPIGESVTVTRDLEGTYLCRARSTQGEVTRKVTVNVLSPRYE

binding result: no binding
B1: wild-type CD11a A domain (receptor, human, UniProt P20701 150-333, looked up)
chain: CIKGNVDLVFLFDGSMSLQPDEFQKILDFMKDVMKKLSNTSYQFAAVQFSTSYKTEFDFSDYVKRKDPDALLKHVKHMLLLTNTFGAINYVATEVFREELGARPDATKVLIIITDGEATDSGNIDAAKDIIRYIIGIGKHFQTKESQETLHKFASKPASEFVKILDTFEKLKDLFTELQKKIYV
notes: domain: A domain; also called wild-type protein without this substitution
